The text below walks through data of paper PMC4498904, “Mutagenesis Study Reveals the Rim of Catalytic Entry Site of HDAC4 and -5 as the Major Binding Surface of SMRT Corepressor” (PLoS ONE, 2015).

In experiment [1] the target is T1, KGN-SRD3c (N-terminal portion of Kusabira Green protein fused with SRD3c) (human, UniProt Q9Y618 1281-1504).
T1 construct: human SMRT, SRD3c region, amino acid 1281 to 1504; The methods say that KGN-MC-SRD3c was made in the KGC-MC vector; also called KGN-MC-SRD3c; source: HEK293, transfected, in cells or lysate
T1 sequence (Q9Y618 1281-1504): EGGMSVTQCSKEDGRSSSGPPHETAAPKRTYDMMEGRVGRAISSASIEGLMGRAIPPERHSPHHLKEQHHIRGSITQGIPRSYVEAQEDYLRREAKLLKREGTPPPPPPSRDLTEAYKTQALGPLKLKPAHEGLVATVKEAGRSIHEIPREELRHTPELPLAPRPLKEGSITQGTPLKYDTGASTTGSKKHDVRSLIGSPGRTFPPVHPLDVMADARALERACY
Nature of the experiment: split reporter (BiFC, NanoBiT); quantitative BiFC (Kusabira Green, Fluo-Chase kit): KGN-SRD3c and KGC-HDAC coexpressed in HEK293, 48 h; fluorescence of cell lysates by spectrophotometer (ex 494 nm, em 538 nm). Conditions: partners not purified.

For experiment [2], the target named is HA-HDAC4c, wild type, expressed in HEK293 cells (human, UniProt P56524 650-1055). The experiment can be described thus: cell-based or functional assay.

B1: KGC-HDAC4c (C-terminal portion of Kusabira Green protein fused with HDAC4c), wild type (domain or fragment, human, UniProt P56524 650-1055, looked up)
chain: PRFTTGLVYDTLMLKHQCTCGSSSSHPEHAGRIQSIWSRLQETGLRGKCECIRGRKATLEELQTVHSEAHTLLYGTNPLNRQKLDSKKLLGSLASVFVRLPCGGVGVDSDTIWNEVHSAGAARLAVGCVVELVFKVATGELKNGFAVVRPPGHHAEESTPMGFCYFNSVAVAAKLLQQRLSVSKILIVDWDVHHGNGTQQAFYSDPSVLYMSLHRYDDGNFFPGSGAPDEVGTGPGVGFNVNMAFTGGLDPPMGDAEYLAAFRTVVMPIASEFAPDVVLVSSGFDAVEGHPTPLGGYNLSARCFGYLTKQLMGLAGGRIVLALEGGHDLTAICDASEACVSALLGNELDPLPEKVLQQRPNANAVRSMEKVMEIHSKYWRCLQRTTSTAGRSLIEAQTCENEEAET
notes: also called KGC-MC-HDAC4c; source: HEK293, transfected, in cells or lysate
With B1, the “fold increase of the BiFC fluorescent signal over the KGC empty vector” value in experiment [1] was ~2 fold.

B2: Human HDAC3 (enzyme, UniProt O15379 1-428, looked up)
chain: MAKTVAYFYDPDVGNFHYGAGHPMKPHRLALTHSLVLHYGLYKKMIVFKPYQASQHDMCRFHSEDYIDFLQRVSPTNMQGFTKSLNAFNVGDDCPVFPGLFEFCSRYTGASLQGATQLNNKICDIAINWAGGLHHAKKFEASGFCYVNDIVIGILELLKYHPRVLYIDIDIHHGDGVQEAFYLTDRVMTVSFHKYGNYFFPGTGDMYEVGAESGRYYCLNVPLRDGIDDQSYKHLFQPVINQVVDFYQPTCIVLQCGADSLGCDRLGCFNLSIRGHGECVEYVKSFNIPLLVLGGGGYTVRNVARCWTYETSLLVEEAISEELPYSEYFEYFAPDFTLHPDVSTRIENQNSRQYLDQIRQTIFENLKMLNHAPSVQIHDVPADLLTYDRTDEADAEERGPEENYSRPEAPNEFYDGDHDNDKESDVEI
On to B2, for which the “fold repression of a Gal4-tk-luciferase reporter by Gal4N-fused wild-type HDAC4c (50 and 100 ng plasmid) in HEK293 cells; endogenous SMRT-HDAC3 complex” value in experiment [2] worked out at 7 fold.

B3: KGC-HDAC5c (C-terminal portion of Kusabira Green protein fused with HDAC5c), wild type (domain or fragment, human, UniProt Q9UQL6 680-1087, looked up)
chain: LFTTGVVYDTFMLKHQCMCGNTHVHPEHAGRIQSIWSRLQETGLLSKCERIRGRKATLDEIQTVHSEYHTLLYGTSPLNRQKLDSKKLLGPISQKMYAVLPCGGIGVDSDTVWNEMHSSSAVRMAVGCLLELAFKVAAGELKNGFAIIRPPGHHAEESTAMGFCFFNSVAITAKLLQQKLNVGKVLIVDWDIHHGNGTQQAFYNDPSVLYISLHRYDNGNFFPGSGAPEEVGGGPGVGYNVNVAWTGGVDPPIGDVEYLTAFRTVVMPIAHEFSPDVVLVSAGFDAVEGHLSPLGGYSVTARCFGHLTRQLMTLAGGRVVLALEGGHDLTAICDASEACVSALLSVELQPLDEAVLQQKPNINAVATLEKVIEIQSKHWSCVQKFAAGLGRSLREAQAGETEEAETVS
notes: human HDAC5 catalytic domain, amino acids 680 to 1087; also called KGC-MC-HDAC5c; source: HEK293, transfected, in cells or lysate
Regarding B3, in experiment [1], the “fold increase of the BiFC fluorescent signal over the KGC empty vector” value was ~2 fold.
